Reference: patent US20240343811A1 (SHANDONG SIMCERE BIOPHARMACUTICAL, published 2024)
Where “and” joins values, the source holds several entries; their conditions need not be identical. Equal entries are not always repeated.

Assays:
[1] = molecular target: T1, human CD16b (NA1), full length, on FlpinCHO cells (human, UniProt O75015 17-200); assay: FACS on FlpinCHO cells
T1 construct: also called FlpinCHO-human CD16b (NA1)
T1 chain: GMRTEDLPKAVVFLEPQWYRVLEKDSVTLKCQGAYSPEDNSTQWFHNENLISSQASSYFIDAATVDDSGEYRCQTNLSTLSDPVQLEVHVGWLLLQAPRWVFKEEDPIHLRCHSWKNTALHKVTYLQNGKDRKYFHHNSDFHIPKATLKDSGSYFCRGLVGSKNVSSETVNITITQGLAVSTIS
Method in brief: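 Trypsin-detached FlpinCHO cells expressing full-length CD16b were blocked in PBS+2% BSA and incubated on ice for 1 hour with antibody at varying concentrations. Binding read by flow cytometry as MFI; EC50 from curve fitting.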

[2] = molecular target: T2, cynomolgus monkey CD16, full length, on FlpinCHO cells (cynomolgus monkey, UniProt Q8SPW2 17-254); assay: FACS on FlpinCHO cells
T2 construct: also called FlpinCHO-cyno CD16; Flipin CHO-cyno CD16
T2 sequence (Q8SPW2 other isoform, or with tags, fused parts or gaps limits assumed): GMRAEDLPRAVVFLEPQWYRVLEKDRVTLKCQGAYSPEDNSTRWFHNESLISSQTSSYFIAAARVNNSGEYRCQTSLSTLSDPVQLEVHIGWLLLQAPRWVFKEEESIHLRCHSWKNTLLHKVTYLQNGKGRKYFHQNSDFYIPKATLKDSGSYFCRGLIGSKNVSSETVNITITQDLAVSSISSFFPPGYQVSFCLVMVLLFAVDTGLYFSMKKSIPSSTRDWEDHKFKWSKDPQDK
Experimental: (§1) The required cells were scale-up cultured in a T-75 cell culture flask to the logarithmic growth phase. The medium was aspirated, and the cells were washed twice with a PBS buffer and then digested with trypsin. After the digestion was terminated, the cells were washed twice with the PBS buffer. The cells were counted, and then the cell pellet was resuspended with a [PBS+2% (w/w) BSA] blocking solution to 2×10⁶ cells/ml, and added to a 96-well FACS reaction plate at 50 μl/well. […] 50 μl/well of the antibody to be detected was added at different concentrations, and incubated on ice for 1 hour. […] The mixture was centrifuged and washed 5 times with PBS, and FACS (FACS Canto II, purchased from BD Company) was used for detection and result analysis. Data analysis was performed by software (CellQuest) to obtain the mean fluorescence intensity (MFI) of the cells. Then, software (GraphPad Prism8) was used for analysis, data fitting and EC50 value calculation.
Flipin CHO-cyno CD16 cells were subjected to FACS detection and data analysis according to the method of Example 3.1.

[3] = molecular target: T3, human CD16a (158V), full length, on cells (human, UniProt P08637 17-254); assay: cell-based or functional assay
[4] = molecular target: T4, human CD16a (158F), full length, on FlpinCHO cells (human, UniProt P08637 17-254); assay: FACS, biotinylated antibody
[5] = molecular target: T3, human CD16a (158V), full length, on …; assay: FACS, biotinylated antibody
[6] = molecular target: T5, CD16 on primary human NK cells (human, UniProt P08637 17-254); assay: FACS on human NK cells, biotinylated antibody; NK cells, no human immunoglobulin; Table 15
T5 construct: whole, on cells; also called resting NK cells

[7] = molecular target: T4, human CD16a (158F), full length, on …; assay: FACS on FlpinCHO cells; no human immunoglobulin; unlabeled antibody, first batch of Table 10
Experimental: as §1

[8] = molecular target: T3, human CD16a (158V), full length, on …; assay: as above
Experimental: as §1

[9] = molecular target: T4, human CD16a (158F), full length, on …; assay: FACS on FlpinCHO cells; no human immunoglobulin; unlabeled antibody, second batch of Table 10
Experimental: as §1

[10] = molecular target: T3, human CD16a (158V), full length, on …; assay: as above
Experimental: as §1

[11] = molecular target: T3, human CD16a (158V), full length, on …; assay: FACS, biotinylated antibody; biotinylated antibody, no human immunoglobulin; first batch of Table 11-1
Experimental: as §1, with “The” for “The required cells were scale-up cultured in a T-75 cell culture flask to the logarithmic growth phase. The”
(§2) An antibody to be detected was labeled in advance according to the instructions of a biotin labeling kit (EZ-Link™ NHS-PEG4 Biotinylation Kit, purchased from Thermofisher Scientific, catalog number: 21455). […] Detection was performed according to the method of Example 3.1, wherein the biotinylated antibody was detected with fluorescein APC-labeled Streptavidin (High Concentration) (purchased from Biolegend, catalog number: 405243).

[12] = molecular target: T4, human CD16a (158F), full length, on …; assay: FACS, biotinylated antibody; biotinylated antibody, no human immunoglobulin; first batch of Table 12-2
Experimental: as §1, with “The” for “The required cells were scale-up cultured in a T-75 cell culture flask to the logarithmic growth phase. The”
as §2

[13] = molecular target: T5, CD16 on primary human NK cells; assay: FACS on human NK cells, biotinylated antibody; NK cells, no human immunoglobulin; Table 29 (later experiment)

EC50 [1]: 1.22 nM and 2.13 nM
EC50 [2]: 2.92 nM
Maximum mean fluorescence intensity [2]: 22300
EC50, activation activity for Jurkat cell [3]: 0.03 nM
Maximum fluorescence value [3]: 153000
EC50 [4]: 3.43 nM
Maximum mean fluorescence intensity [4]: 2010
EC50 [5]: 0.99 nM
Maximum mean fluorescence intensity [5]: 7520
EC50 [6]: 1.99 nM
EC50 [7]: ~0.82 nM
EC50 [8]: 0.56 nM
EC50 [9]: 1.63 nM
EC50 [10]: 1.13 nM
EC50 [11]: 0.7 nM
EC50 [12]: 1.73 nM
EC50 [13]: 4.45 nM
B1: 3G8 scFv-hFc (Fc fusion)
chain: DTVLTQSPASLAVSLGQRATISCKASQSVDFDGDSFMNWYQQKPGQPPKLLIYTTSNLESGIPARFSASGSGTDFTLNIHPVEEEDTATYYCQQSNEDPYTFGGGTKLEIKGGGGSGGGGSGGGGSQVTLKESGPGILQPSQTLSLTCSFSGFSLRTSGMGVGWIRQPSGKGLEWLAHIWWDDDKRYNPALKSRLTISKDTSSNQVFLKIASVDTADTATYYCAQINPAWFAYWGQGTLVTVSAEPKSSDKTHTCPPCPAPEEFGGPSVFLFPPKPKDTLMISRTPEVTCVVVAVSHEDPEVKFNWYVDGVEVHNAKTKPREEQYNSTYRVVSVLTVLHQDWLNGKEYKCKVSNKALPAPIEKTISKAKGQPREPQVYTLPPSREEMTKNQVSLTCLVKGFYPSDIAVEWESNGQPENNYKTTPPVLDSDGSFFLYSKLTVDKSRWQQGNVFSCSVMHEALHNHYTQKSLSLSPGK
notes: also called control antibody 3G8
